According to the RNAGym collection of RNA variant scans (doi:10.7554/elife.90254):

B1: OR4K15 (parent)
chain: GUUAACGGUCAUAGGCCAUGGAAACUAGGAGCACCAUUUCGCUGCCAGUGAAGAAAUGAACAAAGAAAAUCUGGGCCAGGCAGGCAUCAAAAGAAAUAGUCUUGCGCUCAACCAGAAAGUCUGUAAUCAUUUUAAGGGUA

Variants of: B1
Assay: self-cleavage, relative activity (ratio to wild type); higher = more cleavage; in vitro, sequencing; the parent is a self-cleaving ribozyme

| Variant | self-cleavage |
| --- | --- |
| U39C G50U | 1.89 |
| U39A U103C | 2.1 |
| U39C A140C | 1.79 |
| U39A U57A | 1.37 |
| U39C U102C | 2.19 |
| U39C G41U | 1.16 |
| U39C G41A | 2 |
| U39A A111G | 0.02 |
| C40A U122C | 1.07 |
| U39C A110G | 0.14 |
| C40G U72C | 0.41 |
| U38G C107U | 0.02 |
| U39C A47U | 0.79 |
| U39C C45A | 0.46 |
| U39C C45U | 1.46 |
| U39C C45G | 1.5 |
| U39A A90G | 0.95 |
| U39C A55G | 1.66 |
| U39C C71U | 0.29 |
| U39C U103C | 0.93 |
| U39C G53A | 1.53 |

| Variant | self-cleavage |
| --- | --- |
| C40G | 1.62 |
| C40U | 1.57 |
| C40A | 1.83 |
| U39A A86G | 1.76 |
| U39G U102C | 2.67 |
| U39A U49C | 1 |
| U39C C81U | 0.63 |
| U39C U97C | 1.29 |
| C40A A95G | 2.53 |
| U39C A91U | 1.59 |
| C40A U102C | 1.98 |
| U39C A126U | 1.06 |
| U39C A126G | 1.18 |
| U39A U130C | 1.09 |
| U39C G115U | 0.04 |
| U39A A52U | 1.65 |
| U38C U139A | 1.75 |
| U38C U139C | 0.91 |
| U39C G123A | 2.04 |
| U39A U102C | 1.55 |
| C40U A69G | 0.94 |

| Variant | self-cleavage |
| --- | --- |
| U38G A54G | 1.38 |
| U39C C76U | 0.19 |
| U39C U127A | 2.26 |
| U39A A89U | 2.25 |
| U39A A89G | 2.23 |
| C40U A63G | 2.13 |
| U39A A140G | 1.16 |
| U39C A63G | 1.66 |
| U39A A116U | 0.09 |
| U39A A96G | 1.56 |
| U38C U127A | 2.78 |
| C40U A116C | 0.08 |
| U39A G48U | 1.24 |
| U39A A56G | 1.59 |
| U39A A62G | 1.21 |
| C40U A114U | 0.1 |
| U39A A51G | 2.15 |
| U38G A96G | 0.69 |
| C40A A51G | 1.81 |
| C40U A89U | 1.93 |
| C40U A89G | 1.33 |

| Variant | self-cleavage |
| --- | --- |
| U39C A60G | 1.42 |
| C40A A59U | 2 |
| C40A U97C | 1.43 |
| U39C G99A | 0.3 |
| C40U A111G | 0.02 |
| U39C A64G | 1.88 |
| U39C U139C | 1.9 |
| U39A C112G | 0 |
| U38G | 1.59 |
| U39A A54U | 1.18 |
| U39C A68G | 1.37 |
| U39A A117U | 1.81 |
| U39C U49C | 0.91 |
| C40A A64G | 2.37 |
| U38G A62C | 0.78 |
| U39A U122C | 1.39 |
| U39G A126G | 1.03 |
| U39C U108A | 0.03 |
| U38G A116G | 1.67 |
| U39C U120C | 0.95 |
